These results are taken from the supplement of paper PMC7125110.

± gives the standard error. For some assays here: Variants at the floor of the assay were thinned out. Some results are limits rather than exact numbers.

As a reminder, the kcat is the number of substrate molecules converted per active site and unit of time at saturation. In general, KM refers to the substrate concentration at which the rate is half of its maximum.

B1: glmS ribozyme (parent)
chain: AUAAAAGCGCCAGAACUACAGAAAUGUAGUUGACGAGGAGGAGGUUUAUCGAAUUUUCGGCGGAUGCCUCCAAA

Holding throughout (conditions): with glucosamine-6-phosphate
Series [1] covers variants of B1. Briefly: kcat; higher = faster cleavage; RNA array. The method in brief: (§1)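 Tiles bearing barcoded ribozyme variants, transcribed in situ by E. coli RNA polymerase on sequenced MiSeq chips, were imaged over ~14 h at 37 °C using a hybridised Cy3 probe. Glucosamine-6-phosphate was supplied at 40 μM to 10 mM in HEPES/KCl/Mg(OAc)2 buffer. kobs came from one- or two-exponential decay fits to normalised per-tile medians, and weighted Michaelis–Menten fits then provided kcat and KM.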

In series [2] the parent is B1. Kind of series: KM; higher = weaker cofactor use; RNA array. The essentials: as §1
The variants in series [3] derive from B1. Briefly: self-cleavage kobs at 40 uM GlcN6P; higher = faster cleavage; RNA array. The method in brief: as §1
Series [4] covers variants of B1. Kind of series: self-cleavage kobs at 160 uM GlcN6P; higher = faster cleavage; RNA array. The essentials:
as §1

The variants in series [5] derive from B1. Briefly: self-cleavage kobs at 640 uM GlcN6P; higher = faster cleavage; RNA array. The essentials:
as §1

In series [6] the parent is B1. Kind of series: self-cleavage kobs at 2500 uM GlcN6P; higher = faster cleavage; RNA array. The method in brief:
as §1

Series [7] covers variants of B1. Kind of series: self-cleavage kobs at 10000 uM GlcN6P; higher = faster cleavage; RNA array. The method in brief:
as §1

Take A39G U46A: in series [1], the kcat came to 0.00547 ± 0.00066 s⁻¹. Moreover, the KM in series [2] is 2120 ± 360 µM. The “self-cleavage kobs at 40 uM GlcN6P” value in series [3] was 0.000116 ± 3.8e-05 s⁻¹. Also, the “self-cleavage kobs at 160 uM GlcN6P” value in series [4] turned out to be 0.000377 ± 0.0001 s⁻¹. The “self-cleavage kobs at 640 uM GlcN6P” value in series [5] stood at 0.00116 ± 0.00029 s⁻¹. For the same variant, the “self-cleavage kobs at 2500 uM GlcN6P” value in series [6] turned out to be 0.00325 ± 0.00083 s⁻¹. Besides, in series [7], the “self-cleavage kobs at 10000 uM GlcN6P” value is 0.00435 ± 0.0014 s⁻¹.

Turning to C16U U46A, the kcat in series [1] stood at 0.00336 ± 0.00057 s⁻¹. The KM in series [2] turned out to be 2760 ± 760 µM. For the same variant, the “self-cleavage kobs at 40 uM GlcN6P” value in series [3] turned out to be 5.67e-05 ± 1.4e-05 s⁻¹. Moreover, the “self-cleavage kobs at 160 uM GlcN6P” value in series [4] came to 0.00012 ± 5.1e-05 s⁻¹. In addition, the “self-cleavage kobs at 640 uM GlcN6P” value in series [5] came to 0.000641 ± 0.00012 s⁻¹. Further, the “self-cleavage kobs at 2500 uM GlcN6P” value in series [6] was 0.00176 ± 0.00024 s⁻¹. Also, the “self-cleavage kobs at 10000 uM GlcN6P” value in series [7] worked out at 0.00249 ± 0.00038 s⁻¹.

Regarding U45G U46G, the kcat in series [1] is 0.00603 ± 0.0024 s⁻¹. For the same variant, in series [3], the “self-cleavage kobs at 40 uM GlcN6P” value was 7.27e-05 ± 1.4e-05 s⁻¹. Moreover, the “self-cleavage kobs at 160 uM GlcN6P” value in series [4] came to 0.000206 ± 5.5e-05 s⁻¹. In addition, the “self-cleavage kobs at 640 uM GlcN6P” value in series [5] turned out to be 0.000961 ± 0.00019 s⁻¹. In series [6], the “self-cleavage kobs at 2500 uM GlcN6P” value was found to be 0.00158 ± 0.00036 s⁻¹. For the same variant, the “self-cleavage kobs at 10000 uM GlcN6P” value in series [7] was 0.00523 ± 0.00084 s⁻¹.

Regarding U30A G38A, in series [1], the catalytic constant (kcat) was < 1e-05 s⁻¹. Also, in series [3], the “self-cleavage kobs at 40 uM GlcN6P” value was < 1e-05 s⁻¹. In series [7], the “self-cleavage kobs at 10000 uM GlcN6P” value is < 1e-05 s⁻¹.

G32A G38U G59A U65A C70G: in series [1], the catalytic constant (kcat) worked out at 1.63e-05 ± 2.9e-06 s⁻¹.

Regarding A15C A48U, the kcat in series [1] is 5.55e-05 ± 7.9e-06 s⁻¹. Moreover, the KM in series [2] turned out to be 2840 ± 1100 µM. For the same variant, in series [3], the “self-cleavage kobs at 40 uM GlcN6P” value is < 1e-05 s⁻¹. The “self-cleavage kobs at 2500 uM GlcN6P” value in series [6] amounted to 2.83e-05 ± 1.2e-05 s⁻¹. The “self-cleavage kobs at 10000 uM GlcN6P” value in series [7] worked out at 4.26e-05 ± 1.2e-05 s⁻¹.

For the variant C11U C68A C71G, the kcat in series [1] turned out to be 5.97e-05 ± 2.3e-05 s⁻¹. In addition, the “self-cleavage kobs at 640 uM GlcN6P” value in series [5] was found to be 0.000101 ± 2.3e-05 s⁻¹.

With U47A U55C, the turnover number (kcat) in series [1] stood at 0.0198 ± 0.0084 s⁻¹. Further, in series [3], the “self-cleavage kobs at 40 uM GlcN6P” value was found to be 0.000537 ± 8.5e-05 s⁻¹. Moreover, the “self-cleavage kobs at 160 uM GlcN6P” value in series [4] is 0.00116 ± 0.00033 s⁻¹. Also, the “self-cleavage kobs at 640 uM GlcN6P” value in series [5] came to 0.00441 ± 0.0013 s⁻¹. Moreover, the “self-cleavage kobs at 2500 uM GlcN6P” value in series [6] is 0.0089 ± 0.0023 s⁻¹. Further, the “self-cleavage kobs at 10000 uM GlcN6P” value in series [7] came to 0.024 ± 0.0055 s⁻¹.

With C10U A14G, the turnover number (kcat) in series [1] was determined as 0.000181 ± 2.4e-05 s⁻¹. Besides, the KM in series [2] was 2130 ± 650 µM. In addition, the “self-cleavage kobs at 640 uM GlcN6P” value in series [5] worked out at 5.02e-05 ± 7.8e-06 s⁻¹. Moreover, the “self-cleavage kobs at 2500 uM GlcN6P” value in series [6] stood at 8.95e-05 ± 8.6e-06 s⁻¹. In addition, the “self-cleavage kobs at 10000 uM GlcN6P” value in series [7] turned out to be 0.000159 ± 1.6e-05 s⁻¹.

A39G C58G C71A: in series [1], the turnover number (kcat) is 2.19e-05 ± 5.6e-06 s⁻¹.

With C10A U54G, the turnover number (kcat) in series [1] was < 1e-05 s⁻¹. In series [3], the “self-cleavage kobs at 40 uM GlcN6P” value is < 1e-05 s⁻¹.

As to G59A C67U, the kcat in series [1] was found to be 4.36e-05 ± 1.3e-05 s⁻¹. For the same variant, the “self-cleavage kobs at 10000 uM GlcN6P” value in series [7] stood at 3.54e-05 ± 9.1e-06 s⁻¹.

Consider U54G U69G, for which, in series [1], the kcat was determined as 7.3e-05 ± 1.5e-05 s⁻¹. Moreover, the “self-cleavage kobs at 40 uM GlcN6P” value in series [3] stood at 3.86e-05 ± 1.3e-05 s⁻¹. In series [4], the “self-cleavage kobs at 160 uM GlcN6P” value was determined as 8.46e-05 ± 2.2e-05 s⁻¹. In addition, in series [5], the “self-cleavage kobs at 640 uM GlcN6P” value stood at 9.61e-05 ± 1.4e-05 s⁻¹. In addition, the “self-cleavage kobs at 2500 uM GlcN6P” value in series [6] worked out at 8.77e-05 ± 1.5e-05 s⁻¹. Besides, in series [7], the “self-cleavage kobs at 10000 uM GlcN6P” value was found to be 4.86e-05 ± 1.1e-05 s⁻¹.

On to C34A G38U, for which the kcat in series [1] was < 1e-05 s⁻¹. Further, the “self-cleavage kobs at 640 uM GlcN6P” value in series [5] was < 1e-05 s⁻¹.

As to A39C U55C, in series [1], the kcat was 0.00774 ± 0.0022 s⁻¹. In addition, in series [2], the KM turned out to be 3010 ± 1100 µM. Further, in series [3], the “self-cleavage kobs at 40 uM GlcN6P” value was found to be 0.000127 ± 1.4e-05 s⁻¹. In series [4], the “self-cleavage kobs at 160 uM GlcN6P” value turned out to be 0.000325 ± 5e-05 s⁻¹. The “self-cleavage kobs at 640 uM GlcN6P” value in series [5] came to 0.00144 ± 0.00027 s⁻¹. The “self-cleavage kobs at 2500 uM GlcN6P” value in series [6] stood at 0.00268 ± 0.00051 s⁻¹. In series [7], the “self-cleavage kobs at 10000 uM GlcN6P” value is 0.0067 ± 0.00081 s⁻¹.

For U46G U65A C71U, the kcat in series [1] was found to be 0.00287 ± 0.00028 s⁻¹. For the same variant, the Michaelis-Menten constant (KM) in series [2] turned out to be 2140 ± 340 µM. The “self-cleavage kobs at 40 uM GlcN6P” value in series [3] came out at 4.68e-05 ± 1.3e-05 s⁻¹. The “self-cleavage kobs at 160 uM GlcN6P” value in series [4] was determined as 0.000191 ± 6.8e-05 s⁻¹. Besides, the “self-cleavage kobs at 640 uM GlcN6P” value in series [5] turned out to be 0.000735 ± 0.00016 s⁻¹. Also, the “self-cleavage kobs at 2500 uM GlcN6P” value in series [6] stood at 0.00173 ± 0.00035 s⁻¹. Besides, in series [7], the “self-cleavage kobs at 10000 uM GlcN6P” value was determined as 0.00224 ± 0.00038 s⁻¹.

As to A6G A39G, in series [1], the kcat was determined as 0.00207 ± 0.0008 s⁻¹. In addition, the “self-cleavage kobs at 160 uM GlcN6P” value in series [4] was determined as 6.4e-05 ± 1.4e-05 s⁻¹. In addition, in series [5], the “self-cleavage kobs at 640 uM GlcN6P” value amounted to 0.000144 ± 2.7e-05 s⁻¹. Moreover, the “self-cleavage kobs at 2500 uM GlcN6P” value in series [6] came out at 0.000791 ± 0.0001 s⁻¹. Also, the “self-cleavage kobs at 10000 uM GlcN6P” value in series [7] is 0.00121 ± 0.00015 s⁻¹.
